According to patent US20220162322A1 (CAPELLA BIOSCIENCE, published 2022):
Substitutions are numbered along the chain they refer to.

T1: human BDCA-2 (CLEC4C) expressed on transfected U937 cells (human, UniProt Q8WTT0 1-213)
T1 construct: also called cell expressed human BDCA-2; Q8WTT0
T1 sequence: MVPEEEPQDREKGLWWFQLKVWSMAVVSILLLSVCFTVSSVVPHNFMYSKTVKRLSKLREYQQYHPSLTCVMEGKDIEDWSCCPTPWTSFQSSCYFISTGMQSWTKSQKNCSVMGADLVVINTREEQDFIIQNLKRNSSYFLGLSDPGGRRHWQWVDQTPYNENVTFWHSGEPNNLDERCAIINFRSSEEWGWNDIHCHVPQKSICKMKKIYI

T2: BDCA-2 (CLEC4C, CD303) on human plasmacytoid dendritic cells (purified pDC or pDC within PBMC) (human, UniProt Q8WTT0 1-213)
T2 sequence: T1 sequence

T3: cynomolgus BDCA-2 expressed on transfected U937 cells (cynomolgus, UniProt Q8WTT0 1-213 (human entry))
T3 construct: also called cell expressed cynomolgus BDCA-2
T3 chain: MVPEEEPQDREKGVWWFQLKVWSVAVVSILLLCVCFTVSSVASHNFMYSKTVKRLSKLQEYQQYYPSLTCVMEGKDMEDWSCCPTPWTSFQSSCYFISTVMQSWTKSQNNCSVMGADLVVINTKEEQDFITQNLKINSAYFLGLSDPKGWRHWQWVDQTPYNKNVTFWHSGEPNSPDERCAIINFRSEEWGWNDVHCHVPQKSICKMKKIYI

B1: chimeric mAb 25E06 (antibody, human IgG1, V domains shown)
VH: EVKLVESGGGLVKPGGSLKLSCAASGFTFSSYTMSWVRQTPEKRLEWVAYISGVGGDTYYPDSVKGRFTISRDNARNTLYLQMSSLRSEDTAMFYCARHHYSHYFWYFDVWGAGTTVTVSS
VL: DIVLTQSPASLAVSLGQRATISCKASQSVDYDGDGFMNWYQQKPGQPPKLLIYAASNLESGIPARFSGSGSGADFTLNIHPVEEEDAATYYCQQSNEDPPTFGGGTKLEIK
notes: also called Parental 25E06
B2: chimeric mAb 28B01 (antibody, human IgG1, V domains shown)
VH: B1 VH with S31Y, G53S, V54G, G56D, D57N, T58A, K65R, F94Y, H103N
VL: B1 VL with D32A, G35S, F36Y, M37V, A73T
notes: also called 28B1; Parental 28B01
B3: chimeric mAb 21E06 (antibody, human IgG1, V domains shown)
VH: EVKLVESGGGLVKSGGSLKLSCEVSGFTFSSYTISWVRQTPEKRLEWVAYISSGGDNAYYPDSVKGRFTISRDNARNTLYLQMSSLRSEDTAMYYCARHLYYGDYFYVMDYWGQGTSVTVSS
VL: B1 VL with G35N, F36C, M37L, N38H, Y40F, A73T
notes: also called Parental 21E06
B4: 3E05_var1 (antibody, human IgG1, V domains shown)
VH: EVQLVESGGGLVKPGGSLRLSCAASGFTFSSYTMSWVRQAPGKGLEWVAYISSGGGNTYYPDSVKGRFTISRDNAKNSLYLQMNSLRAEDTAVYYCARHDYYDGGLYYAMDYWGQGTLVTVSS
VL: DIVMTQSPDSLAVSLGERATINCKASQSVDYDGDSSMNWYQQKPGQPPKLLISAASTLESGVPSRFSGSGSGTDFTLTISSLQAEDVAVYYCQQTNEDPPTFGGGTKVEIK
notes: also called 3E05 VL1VH1 (var_1)
B5: 3E05_var3 (antibody, human IgG1, V domains shown)
VH: B4 VH with N57Q
VL: B4 VL
notes: also called 3E05 VL1VH3 (var_3)
B6: 3E05_var9 (antibody, human IgG1, V domains shown)
VH: B4 VH
VL: B4 VL with A25S, S53Y, V89T
notes: also called 3E05 VL3VH1 (var_9)
B7: 3E05_var8 (antibody, human IgG1, V domains shown)
VH: B4 VH with N57Q, D103E
VL: B4 VL with A25S, V89T
B8: 3E05_var15 (antibody, human IgG1, V domains shown)
VH: B4 VH with N57Q
VL: B4 VL with D32E
notes: also called 3E05 VL4VH3 (var_15)
B9: 3E05_var5 (antibody, human IgG1, V domains shown)
VH: B4 VH
VL: B4 VL with A25S, V89T
notes: also called 3E05 VL2VH1 (var_5)
B10: 3E05_var2 (antibody, human IgG1, V domains shown)
VH: B4 VH with E1Q, A49S, P61A
VL: B4 VL
notes: also called 3E05 VL1VH2 (var_2)
B11: 3E05_var13 (antibody, human IgG1, V domains shown)
VH: B4 VH
VL: B4 VL with D32E
notes: also called 3E05 VL4VH1 (var_13)
B12: 3E05_var14 (antibody, human IgG1, V domains shown)
VH: B4 VH with E1Q, A49S, P61A
VL: B4 VL with D32E
notes: also called 3E05 VL4VH2 (var_14); 3E05VL4VH2 (var_14)
B13: 3E05_var6 (antibody, human IgG1, V domains shown)
VH: B4 VH with E1Q, A49S, P61A
VL: B4 VL with A25S, V89T
notes: also called 3E05 VL2VH2 (var_6); 3E05VL2VH2 (var_6)
B14: 3E05_var7 (antibody, human IgG1, V domains shown)
VH: B4 VH with N57Q
VL: B4 VL with A25S, V89T
notes: also called 3E05 VL2VH3 (var_7)
B15: 3E05_var10 (antibody, human IgG1, V domains shown)
VH: B4 VH with E1Q, A49S, P61A
VL: B4 VL with A25S, S53Y, V89T
notes: also called 3E05 VL3VH2 (var_10)
B16: 3E05_var16 (antibody, human IgG1, V domains shown)
VH: B4 VH with N57Q, D103E
VL: B4 VL with D32E
B17: 3E05_var4 (antibody, human IgG1, V domains shown)
VH: B4 VH with N57Q, D103E
VL: B4 VL
notes: also called 3E05 VL1VH4 (var_4)
B18: 3E05_var11 (antibody, human IgG1, V domains shown)
VH: B4 VH with N57Q
VL: B4 VL with A25S, S53Y, V89T
notes: also called 3E05 VL3VH3 (var_11)
B19: anti-BDCA-2 mAb BIIB059 (from patent WO2014093396) (antibody, V domains shown)
VH: DVQLVESGGGLVKPGGSLRLSCAASGFTFSTYTMSWVRQAPGKGLEWVATISPGDSFGYYYPDSVQGRFTISRDNAKNSLYLQMNSLRAEDTAVYYCTRDIYYNYGAWFAYWGQGTLVTVSS
VL: DIQLTQSPSSLSASVGDRVTITCKASQSVDYDGDSYMNWYQQKPGKAPKLLIYAASTLESGVPSRFSGSGSGTDFTLTISSLQPEDFATYYCQQANEDPRTFGQGTKVEIKR

Target: T1, human BDCA-2 (CLEC4C) expressed on …
Experiment: flow cytometry (MFI titration) on cells expressing human BDCA-2
Protocol: (§1) Cells expressing human and cynomolgus BDCA-2 were resuspend at 2×10⁶ cells/mi in FACS buffer (2% FBS/PBS) and 50 μl of the cell suspension was added per well, in a 96-well V bottom plate. The plate was centrifuge and the supernatant discarded. 12 serial, 2-fold dilutions of mAbs, starting at 50 μg/ml (range 50-0.024 μg/ml), in FACS buffer were prepared and 25 μl of the mAb dilutions added to wells, in triplicate. The plate was then incubated for 60 min at room temperature then centrifuged and washed 3× with 150 μl FACS buffer. To each well was then added 25 μl goat-anti-human PE conjugate (or goat-anti-mouse in the case of AC144), diluted 1:200 in FACS buffer. The plates were incubated for 60 min at room temperature protected from light and centrifuged and washed 3× with 150 μl FACS buffer. 25 μl per well of 2% PFA 2% was added and incubated for 20 min at 4° C., protected from light and analysed on the iQue screener.
(§2) Serial dilutions of the 4 chimeric mAbs (50-0.25 ug/ml) were prepared and incubated with cells expressing human and cynomolgus BDCA-2. After staining, the median fluorescence intensity (MFI) of the cells was measured and the data points of the dilution series were fitted on a sigmoidal curve after normalization to determine the EC50 values.

EC50 [µg/mL] | Binder
0.57 | B1
0.77 | B2
0.3 | B3

Target: T4, human BDCA-2-Fc (hIgG1-Fc-hBDCA-2) (human)
T4 construct: also called huBDCA2-Fc
Experiment: ELISA on plate-coated human BDCA2-Fc
Protocol: 100 ul per well of 0.5 μg/ml of human BDCA2-Fc in PBS pH 7.4 was incubated overnight at 4 C. The wells were then washed 3 times with PBST (PBS+0.05% Tween 20) and then blocked with 250 ul 4% Skimmed Milk (Marvel, cat. no. 3023033 Lot no. 7169) in PBS for 120 min at RT. The wells were washed and then incubated with 100 ul per well of humanized mAbs at 3 fold dilutions (from 1 μg/ml to 0.001 μg/ml) in 1% Skimmed Milk PBS buffer at pH 7.4. After 60 min at RT the wells were washed 3 times in PBST and 100 ul of mouse anti-human IgG (anti-CH1-HRP; 1:1000, BD Pharmigen cat. no. 555788) or donkey anti-mouse IgG (anti-mouse IgG-HRP) at 1:5000 dilution (Jackson ImmunoResearch, Cat. no. 715-035-150) in 1% Skimmed Milk PBS was added. Development was with TMB (ThermoFisher, cat. no. 00-4201-56), 100 ul/well and the reaction stopped with 100 μl/well H2SO4 (cat. nr. J/8430/15, lot nr.) and the absorbance read at 450 nm. The EC50 was calculated using Graphpad Prism software. A negative (1% Skimmed Milk/PBS) and positive control (anti-BDCA-2, AC144, Miltenyi Biotec, cat. no. 130-090-690) were utilised in the assay.

T4 sequence (chain, as listed by the source limits assumed): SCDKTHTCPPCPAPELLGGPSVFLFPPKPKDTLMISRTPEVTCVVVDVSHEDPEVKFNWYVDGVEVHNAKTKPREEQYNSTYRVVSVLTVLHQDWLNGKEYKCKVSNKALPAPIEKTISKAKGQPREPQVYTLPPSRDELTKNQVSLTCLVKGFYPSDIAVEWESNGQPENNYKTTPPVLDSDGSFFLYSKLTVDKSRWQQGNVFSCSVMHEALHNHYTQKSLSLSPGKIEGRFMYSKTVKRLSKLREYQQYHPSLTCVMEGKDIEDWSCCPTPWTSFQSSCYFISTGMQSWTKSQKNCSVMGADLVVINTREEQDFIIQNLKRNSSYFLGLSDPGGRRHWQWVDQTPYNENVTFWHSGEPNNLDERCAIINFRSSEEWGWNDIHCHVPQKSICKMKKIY

EC50 [nM] | Binder
0.51 | B4
0.27 | B5
1.12 | B6
0.21 | B7
0.25 | B8
0.51 | B9
0.32 | B10
0.45 | B11
0.32 | B12
0.29 | B13
0.33 | B14
0.71 | B15
0.25 | B16
0.29 | B17
0.81 | B18

Target: T4, human BDCA-2-Fc (hIgG1-Fc-hBDCA-2)
Experiment: SPR (BIAcore), comparison of KD

fold higher affinity than parental wild type 3E05 and AC144 [fold] | Binder
> 100 | B4
> 100 | B5
> 100 | B6
> 100 | B7
> 100 | B8
> 100 | B9
> 100 | B11
> 100 | B12
> 100 | B13
> 100 | B14
> 100 | B16
> 100 | B17

Target: T2, BDCA-2 (CLEC4C, CD303) on human …
Experiment: cell-based or functional assay

IC50, ng/ml; inhibition of IFNα from ODN stimulated healthy donor PBMC [ng/mL] | IC90, ng/ml; inhibition of IFNα from ODN stimulated healthy donor PBMC [ng/mL] | Binder
19.3 | 173 | B12
12.3 | 110 | B13

Target: T4, human BDCA-2-Fc (hIgG1-Fc-hBDCA-2)
Experiment: SPR (BIAcore T200), huBDCA2-Fc immobilised on CM5 chip, mAb injected
Protocol: A BIAcore T200 was used with BIAcore run buffer (HBS-EP) at pH7.4. 692RU of huBDCA2-Fc was immobilized to a CM5 chip (CFJB156) utilising 5 μg/ml of huBDCA2-Fc with the BIAcore EDC/NHS kit according to the manufacturer's instructions. Two-fold dilutions of the humanized mAbs were injected starting at 200 nM down to 3.1 nM with a contact time of 60 s at a flow of 30 or 60 ul/min at 25° C. followed by an off-rate wash for 5 minutes with BIAcore buffer. […] The BIAcore T200 software was used to calculate Ka (1/Ms), Kd (1/s) and the KD (nM).

Kd [nM] | Binder
0.7 | B19
< 0.01 | B4
< 0.01 | B5
< 0.01 | B6
< 0.01 | B7
< 0.01 | B8
< 0.01 | B9
0.3 | B10
< 0.01 | B11
< 0.01 | B12
< 0.01 | B13
< 0.01 | B14
0.73 | B15
< 0.01 | B16
< 0.01 | B17
0.94 | B18

Target: T3, cynomolgus BDCA-2 expressed on …
Experiment: flow cytometry (MFI titration) on cells expressing cynomolgus BDCA-2
Protocol: as §1, §2

EC50 [µg/mL] | Binder
1.35 | B1
0.79 | B2
0.92 | B3

Target: T2, BDCA-2 (CLEC4C, CD303) on human …
Experiment: cell-based or functional assay
Remark: another data set of the same source

IC50, nM; inhibition of IFNα from ODN stimulated healthy donor PBMC [nM] | IC90, nM; inhibition of IFNα from ODN stimulated healthy donor PBMC [nM] | Binder
0.13 | 1.15 | B12
0.08 | 0.73 | B13
